The subject of data set [1] is HeLa Kyoto. As to the kind of experiment: solubility in G1/S (NP-40 vs SDS abundance) (log2 ratio); higher = more soluble. The conditions noted are these: cell cycle stage: G1/S.
Data set [2] concerns HeLa Kyoto. Description: solubility change mitosis vs G1/S (difference of NP-40 vs SDS log2 ratios) (log2 ratio difference); higher = more soluble in mitosis.
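Throughout, for solubility change mitosis vs G1/S (difference of NP-40 vs SDS log2 ratios): synchronized HeLa Kyoto cells (double thymidine block for G1/S, nocodazole release for mitosis), protein amounts in NP-40 versus SDS lysates quantified by mass spectrometry, three biological replicates.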
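Throughout, for solubility in G1/S (NP-40 vs SDS abundance): HeLa Kyoto cells arrested at G1/S by double thymidine block, proteins quantified by TMT10plex mass spectrometry in mild NP-40 versus SDS extracts, three biological replicates.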

For “MEGDGVPWGSEPVSGPGPGGGGMIRELCRGFGRYRRYLGRLRQNLRETQKFFRDIKCSHNHTCLSSLTGGGGAERGPAGDVAETGLQAGQLSCISFPPKEEKYLQQIVDCLPCILILGQDCNVKCQLLNLLLGVQVLPTTKLGSEESCKLRRLRFTYGTQTRVSLALPGQYELVHTLVAHQGNWETIPEEDLEVQENNEDAAHVLAELEVTMHHALLQEVDVVVAPCQGLRPTVDVLGDLVNDFLPVITYALHKDELSERDEQELQEIRKYFSFPVFFFKVPKLGSEIIDSSTRRMESERSPLYRQLIDLGYLSSSHWNCGAPGQDTKAQSMLVEQSEKLRHLSTFSHQVLQTRLVDAAKALNLVHCHCLDIFINQAFDMQRDLQITPKRLEYTRKKENELYESLMNIANRKQEEMKDMIVETLNTMKEELLDDATNMEFKDVIVPENGEPVGTREIKCCIRQIQELIISRLNQAVANKLISSVDYLRESFVGTLERCLQSLEKSQDVSVHITSNYLKQILNAAYHVEVTFHSGSSVTRMLWEQIKQIIQRITWVSPPAITLEWKRKVAQEAIESLSASKLAKSICSQFRTRLNSSHEAFAASLRQLEAGHSGRLEKTEDLWLRVRKDHAPRLARLSLESCSLQDVLLHRKPKLGQELGRGQYGVVYLCDNWGGHFPCALKSVVPPDEKHWNDLALEFHYMRSLPKHERLVDLHGSVIDYNYGGGSSIAVLLIMERLHRDLYTGLKAGLTLETRLQIALDVVEGIRFLHSQGLVHRDIKLKNVLLDKQNRAKITDLGFCKPEAMMSGSIVGTPIHMAPELFTGKYDNSVDVYAFGILFWYICSGSVKLPEAFERCASKDHLWNNVRRGARPERLPVFDEECWQLMEACWDGDPLKRPLLGIVQPMLQGIMNRLCKSNSEQPNRGLDDST [DSTYK]”, the “solubility in G1/S (log2)” value in the data set with HeLa Kyoto [1] is 0.0887. The “solubility change mitosis (log2)” value in the data set with HeLa Kyoto [2] was -0.242.

For “MNYPGRGSPRSPEHNGRGGGGGAWELGSDARPAFGGGVCCFEHLPGGDPDDGDVPLALLRGEPGLHLAPGTDDHNHHLALDPCLSDENYDFSSAESGSSLRYYSEGESGGGGSSLSLHPPQQPPLVPTNSGGGGATGGSPGERKRTRLGGPAARHRYEVVTELGPEEVRWFYKEDKKTWKPFIGYDSLRIELAFRTLLQTTGARPQGGDRDGDHVCSPTGPASSSGEDDDEDRACGFCQSTTGHEPEMVELVNIEPVCVRGGLYEVDVTQGECYPVYWNQADKIPVMRGQWFIDGTWQPLEEEESNLIEQEHLNCFRGQQMQENFDIEVSKSIDGKDAVHSFKLSRNHVDWHSVDEVYLYSDATTSKIARTVTQKLGFSKASSSGTRLHRGYVEEATLEDKPSQTTHIVFVVHGIGQKMDQGRIIKNTAMMREAARKIEERHFSNHATHVEFLPVEWRSKLTLDGDTVDSITPDKVRGLRDMLNSSAMDIMYYTSPLYRDELVKGLQQELNRLYSLFCSRNPDFEEKGGKVSIVSHSLGCVITYDIMTGWNPVRLYEQLLQKEEELPDERWMSYEERHLLDELYITKRRLKEIEERLHGLKASSMTQTPALKFKVENFFCMGSPLAVFLALRGIRPGNTGSQDHILPREICNRLLNIFHPTDPVAYRLEPLILKHYSNISPVQIHWYNTSNPLPYEHMKPSFLNPAKEPTSVSENEGISTIPSPVTSPVLSRRHYGESITNIGKASILGAASIGKGLGGMLFSRFGRSSTTQSSETSKDSMEDEKKPVASPSATTVGTQTLPHSSSGFLDSAYFRLQESFFNLPQLLFPENVMQNKDNALVELDHRIDFELREGLVESRYWSAVTSHTAYWSSLDVALFLLTFMYKHEHDDDAKPNLDPI [DDHD1]”, the “solubility in G1/S (log2)” value with HeLa Kyoto [1] was -0.175. The “solubility change mitosis (log2)” value in the data set with HeLa Kyoto [2] turned out to be 0.134.

(Values after the supplement of paper PMC5998384.)
